Assay [1] has as its target ICAM-1 (Intercellular Adhesion Molecule-1) (human) (UniProt P05362). Briefly: cell-based or functional assay.
The target in assay [2] is specific cell surface receptor of synovial cells (unidentified), on human RA synovial fibroblasts (human). Briefly: flow cytometry competition on synovial cells, unlabeled Fgn 2.5 mg for 3 h then labeled SAC[KBtn] 1 h; signal is of bound SAC[KBtn]. In general terms: Flow cytometry measures light scatter and fluorescence of single cells or particles in a stream.
Assay [3] shares this target. Kind of assay: flow cytometry competition on synovial cells, unlabeled SAC 2.5 mg for 3 h then labeled SAC[KBtn] 1 h; signal is of bound SAC[KBtn].
Assay [4] shares this target. Kind of assay: flow cytometry competition on synovial cells, unlabeled GPRP 2.5 mg for 3 h then labeled SAC[KBtn] 1 h; signal is of bound SAC[KBtn].
Assay [5] has the same target. Briefly: flow cytometry on RA #16 synovial fibroblasts, 100 ug control peptide, avidin-FITC detection (avidin-FITC alone 13.71).
For assay [6] the target is unchanged. Briefly: flow cytometry on RA #16 synovial fibroblasts, 100 ug control peptide, avidin-FITC detection (avidin-FITC alone 3.6 %).
The target is the same in assay [7]. Briefly: flow cytometry on RA #16 synovial fibroblasts, 200 ug peptide, avidin-FITC detection (avidin-FITC alone 13.71).
Assay [8] has the same target. Briefly: flow cytometry on synovial cells, SAC[KBtn] 1 h without competitor, avidin-FITC detection (avidin-FITC alone 20.16).
Assay [9] shares this target. Briefly: flow cytometry on RA #16 synovial fibroblasts, 100 ug peptide, avidin-FITC detection (avidin-FITC alone 3.6 %).
For assay [10] the target is unchanged. Kind of assay: flow cytometry on RA #16 synovial fibroblasts, 200 ug peptide, avidin-FITC detection (avidin-FITC alone 3.6 %).
The target is the same in assay [11]. Briefly: flow cytometry on RA #16 synovial fibroblasts, 100 ug peptide, avidin-FITC detection (avidin-FITC alone 13.71).

This is an account of results in patent US20030109431A1.

Where no end group is shown, it is not given here. The star is where a group is joined. Biotin = O=C1N[C@H]2[C@H](CS[C@H]2CCCCC(=O)*)N1

Sequence of ICAM-1 (Intercellular Adhesion Molecule-1) (human) (P05362 28-532): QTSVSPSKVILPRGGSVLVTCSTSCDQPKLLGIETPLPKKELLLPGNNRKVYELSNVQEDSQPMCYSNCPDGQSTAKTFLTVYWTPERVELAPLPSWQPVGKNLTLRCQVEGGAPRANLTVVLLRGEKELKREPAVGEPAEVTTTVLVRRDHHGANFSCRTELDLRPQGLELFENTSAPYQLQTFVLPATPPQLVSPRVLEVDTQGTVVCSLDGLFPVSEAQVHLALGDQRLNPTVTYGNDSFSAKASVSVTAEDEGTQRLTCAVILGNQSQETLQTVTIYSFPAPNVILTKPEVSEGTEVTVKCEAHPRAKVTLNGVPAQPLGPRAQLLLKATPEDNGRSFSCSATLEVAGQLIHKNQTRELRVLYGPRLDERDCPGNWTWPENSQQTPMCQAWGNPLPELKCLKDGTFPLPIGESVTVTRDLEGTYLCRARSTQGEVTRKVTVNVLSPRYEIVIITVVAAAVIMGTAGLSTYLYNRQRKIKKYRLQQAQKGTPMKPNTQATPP

“T-cell LFA-1 (from UniProt P20701 26-1170; P05107 23-769) (receptor)”: in assay [1], the adherent T cell numbers, Foreskin line, GPRP 0.1 mg/ml was 51 T cells; the adherent T cell numbers, Foreskin line, GPRP 1 mg/ml stood at 54 T cells; the adherent T cell numbers, Foreskin line, IL-1 beta 1 ng/ml was determined as 94 T cells; the adherent T cell numbers, Foreskin line, control was found to be 47 T cells. In [1], the adherent T cell numbers, OA line 15, GPRP 0.1 mg/ml was found to be 92 T cells; the adherent T cell numbers, OA line 15, GPRP 1 mg/ml came to 113 T cells; the adherent T cell numbers, OA line 15, IL-1 beta 1 ng/ml was 66 T cells; the adherent T cell numbers, OA line 15, control turned out to be 35 T cells. In assay [1], the adherent T cell numbers, RA line 7, GPRP 0.1 mg/ml stood at 184 T cells; the adherent T cell numbers, RA line 7, GPRP 1 mg/ml was determined as 153 T cells; the adherent T cell numbers, RA line 7, IL-1 beta 1 ng/ml is 116 T cells; the adherent T cell numbers, RA line 7, control worked out at 80 T cells. Moreover, in assay [1], the adherent T cell numbers, RA line 8, GPRP 0.1 mg/ml amounted to 99 T cells; the adherent T cell numbers, RA line 8, GPRP 1 mg/ml turned out to be 97 T cells; the adherent T cell numbers, RA line 8, IL-1 beta 1 ng/ml is 58 T cells; the adherent T cell numbers, RA line 8, control was 29 T cells.

As for “unlabeled fibrinogen (from UniProt P02671 20-629; P02675 31-491; P02679 27-437)”, the Mean in assay [2] stood at 21.6.

B1: unlabeled … (peptide)
peptide: GPRVVERHQSAC
Consider B1, for which the Mean in assay [3] turned out to be 36.3.

B2: synthetic tetrapeptide Gly-Pro-Arg-Pro (peptide)
peptide: H-GPRP-OH
In the case of B2, in assay [4], the Mean turned out to be 33.6.

B3: biotinylated control peptide …[KBtn] derived from the B/beta chain of fibrinogen following removal of Fibrinopeptide B (peptide)
peptide: GHRPLDKKREEK(Biotin)
For B3, the Mean Fluorescent Channel in assay [5] turned out to be 20.4. The % Cells Positive in assay [6] stood at 10.6%.

B4: biotinylated amino acid sequence 17-28 of human fibrinogen Aα chain, …[KBtn] (peptide)
peptide: GPRVVERHQSACK(Biotin)
On to B4, for which the Mean Fluorescent Channel in assay [7] was 125; in [11], 258. In assay [8], the Mean came out at 51.2. Further, the % Cells Positive in assay [9] amounted to 86.3%; in [10] it was 80%.
